Reference: PMC10709394, “Structural basis for nucleosome binding and catalysis by the yeast Rpd3S/HDAC holoenzyme” (Cell Research, 2023)

B1: Rco1 (natural protein, yeast, UniProt Q04779 1-684, looked up)
chain: MDTSKKDTTRSPSHSNSSSPSSSSLSSSSSKEKKRPKRLSSQNVNYDLKRRKIITSEGIERSFKNEHSNLAVEDNIPEEEPKELLEKDSKGNIIKLNEPSTISEDSKVSVTGLPLNKGPSEKIKRESLWNYRKNLGGQSNNSEMTLVPSKRFTQVPKNFQDLNRNDLKTFLTENMTEESNIRSTIGWNGDIINRTRDREPESDRDNKKLSNIRTKIILSTNATYDSKSKLFGQNSIKSTSNASEKIFRDKNNSTIDFENEDFCSACNQSGSFLCCDTCPKSFHFLCLDPPIDPNNLPKGDWHCNECKFKIFINNSMATLKKIESNFIKQNNNVKIFAKLLFNIDSHNPKQFQLPNYIKETFPAVKTGSRGQYSDENDKIPLTDRQLFNTSYGQSITKLDSYNPDTHIDSNSGKFLICYKCNQTRLGSWSHPENSRLIMTCDYCQTPWHLDCVPRASFKNLGSKWKCPLHSPTKVYKKIHHCQEDNSVNYKVWKKQRLINKKNQLYYEPLQKIGYQNNGNIQIIPTTSHTDYDFNQDFKITQIDENSIKYDFFDKIYKSKMVQKRKLFQFQESLIDKLVSNGSQNGNSEDNMVKDIASLIYFQVSNNDKSSNNKSASKSNNLRKLWDLKELTNVVVPNELDSIQFNDFSSDEIKHLLYLKKIIESKPKEELLKFLNIENPENQSE
notes: Two copies stand in the holoenzyme; also called Rco1 I; Rco1 II
B2: Rpd3 (enzyme, yeast, UniProt P32561 1-433, looked up)
chain: MVYEATPFDPITVKPSDKRRVAYFYDADVGNYAYGAGHPMKPHRIRMAHSLIMNYGLYKKMEIYRAKPATKQEMCQFHTDEYIDFLSRVTPDNLEMFKRESVKFNVGDDCPVFDGLYEYCSISGGGSMEGAARLNRGKCDVAVNYAGGLHHAKKSEASGFCYLNDIVLGIIELLRYHPRVLYIDIDVHHGDGVEEAFYTTDRVMTCSFHKYGEFFPGTGELRDIGVGAGKNYAVNVPLRDGIDDATYRSVFEPVIKKIMEWYQPSAVVLQCGGDSLSGDRLGCFNLSMEGHANCVNYVKSFGIPMMVVGGGGYTMRNVARTWCFETGLLNNVVLDKDLPYNEYYEYYGPDYKLSVRPSNMFNVNTPEYLDKVMTNIFANLENTKYAPSVQLNHTPRDAEDLGDVEEDSAEAKDTKGGSQYARDLHVEHDNEFY
notes: Rpd3, yeast class I histone deacetylase, endogenous catalytic subunit of Rpd3S; Subunit of the endogenous holoenzyme; also called Rpd3/HDAC

Assays:
Test in all cases: cryo-EM structure; endogenous Rpd3S incubated with an excess of H3Kc36me3 mononucleosome (70-bp DNA link at one end), fractionated by gel filtration, concentrated, no cross-linking; 3.7 Å
Sin3 = molecular target: T1, Sin3 (yeast, UniProt P22579 1-1536); conditions: both partners purified
T1 construct: Sin3, yeast, endogenous scaffold subunit of Rpd3S

[1] = molecular target: the molecule itself
Rco1 = molecular target: B1; conditions: both partners purified
Rpd3 = molecular target: B2; conditions: both partners purified

T1 sequence (P22579 whole entry): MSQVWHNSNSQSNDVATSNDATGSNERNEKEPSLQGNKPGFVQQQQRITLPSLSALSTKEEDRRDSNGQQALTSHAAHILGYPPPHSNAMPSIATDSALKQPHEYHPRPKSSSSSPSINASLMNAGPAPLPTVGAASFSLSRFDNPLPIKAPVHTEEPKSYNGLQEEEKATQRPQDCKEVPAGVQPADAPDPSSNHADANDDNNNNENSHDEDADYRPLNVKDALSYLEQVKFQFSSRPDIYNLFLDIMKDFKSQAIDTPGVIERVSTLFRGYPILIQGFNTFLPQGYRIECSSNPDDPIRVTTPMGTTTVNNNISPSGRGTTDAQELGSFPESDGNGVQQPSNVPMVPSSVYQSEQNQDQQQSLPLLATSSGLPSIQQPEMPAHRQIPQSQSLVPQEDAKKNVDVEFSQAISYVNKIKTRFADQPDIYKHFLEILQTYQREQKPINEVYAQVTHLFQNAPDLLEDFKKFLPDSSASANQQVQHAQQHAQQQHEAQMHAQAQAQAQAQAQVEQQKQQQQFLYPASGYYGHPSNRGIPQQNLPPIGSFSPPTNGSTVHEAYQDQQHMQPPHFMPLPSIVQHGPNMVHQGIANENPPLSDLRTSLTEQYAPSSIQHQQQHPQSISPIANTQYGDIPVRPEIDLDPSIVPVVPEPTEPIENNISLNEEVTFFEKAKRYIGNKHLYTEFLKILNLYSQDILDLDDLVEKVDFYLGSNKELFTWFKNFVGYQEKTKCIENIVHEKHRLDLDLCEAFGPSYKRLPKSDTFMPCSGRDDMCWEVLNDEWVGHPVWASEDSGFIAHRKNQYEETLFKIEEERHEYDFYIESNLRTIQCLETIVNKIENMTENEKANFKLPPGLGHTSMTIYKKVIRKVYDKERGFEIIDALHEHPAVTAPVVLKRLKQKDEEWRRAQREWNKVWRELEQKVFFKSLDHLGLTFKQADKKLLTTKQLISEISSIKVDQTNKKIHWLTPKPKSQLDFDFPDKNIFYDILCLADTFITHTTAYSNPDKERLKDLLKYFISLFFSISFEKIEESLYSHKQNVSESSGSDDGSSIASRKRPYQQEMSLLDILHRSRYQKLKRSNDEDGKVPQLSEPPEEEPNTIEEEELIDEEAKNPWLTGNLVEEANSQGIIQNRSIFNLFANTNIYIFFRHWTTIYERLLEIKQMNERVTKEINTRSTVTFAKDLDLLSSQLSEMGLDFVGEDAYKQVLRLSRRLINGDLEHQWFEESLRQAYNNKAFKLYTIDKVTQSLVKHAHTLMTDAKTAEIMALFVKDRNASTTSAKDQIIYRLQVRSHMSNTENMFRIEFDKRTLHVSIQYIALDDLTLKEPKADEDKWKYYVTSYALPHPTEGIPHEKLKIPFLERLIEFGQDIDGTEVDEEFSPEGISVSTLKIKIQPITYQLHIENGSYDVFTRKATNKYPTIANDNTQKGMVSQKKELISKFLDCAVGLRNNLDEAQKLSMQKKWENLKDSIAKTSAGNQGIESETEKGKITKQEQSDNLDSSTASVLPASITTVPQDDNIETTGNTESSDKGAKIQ

| binding result (Sin3) | binding result (Rco1) | binding result (Rpd3) | Binder | stoichiometry N [1] |
| --- | --- | --- | --- | --- |
| binds |  |  | B1 | 2 |
| binds | binds | binds | Eaf3 (natural protein, yeast, UniProt Q12432 1-401, looked up, Two copies stand in the holoenzyme; also called Eaf3 I; Eaf3 II) MVDLEQEFALGGRCLAFHGPLMYEAKILKIWDPSSKMYTSIPNDKPGGSSQATKEIKPQKLGEDESIPEEIINGKCFFIHYQGWKSSWDEWVGYDRIRAYNEENIAMKKRLANEAKEAKKSLLEQQKKKKLSTSLGGPSNGGKRKGDSRSNASISKSTSQSFLTSSVSGRKSGRSSANSLHPGSSLRSSSDQNGNDDRRRSSSLSPNMLHHIAGYPTPKISLQIPIKLKSVLVDDWEYVTKDKKICRLPADVTVEMVLNKYEHEVSQELESPGSQSQLSEYCAGLKLYFDKCLGNMLLYRLERLQYDELLKKSSKDQKPLVPIRIYGAIHLLRLISVLPELISSTTMDLQSCQLLIKQTEDFLVWLLMHVDEYFNDKDPNRSDDALYVNTSSQYEGVALGM |  |
| binds | binds |  | B2 |  |
